The target in assay [1] is T1, human nerve growth factor (beta-NGF) (human, UniProt P01138 122-241). The assay is described as follows: inhibition of human 125I-NGF binding to coated p75 fusion protein. The procedure: (§1) Human TrkA and p75 receptor fusion proteins (R&D Systems) were diluted in Dulbecco's PBS (Gibco) to final concentrations of 10 nM and 0.6 nM, respectively. Maxisorp Nunc white 96 well microtitre plates (Nalge Nunc) were coated overnight at 4° C. with 100 μl/well of the diluted TrkA or p75 receptor solution. Plates were washed 3 times with PBS Tween 20, and then blocked with 200 μl/well 3% w/v bovine serum albumin (BSA) in PBS. Plates were washed after 1 h incubation at room temperature. Test antibodies were diluted to the desired concentration in assay buffer (0.5% w/v BSA and 0.05% v/v Tween 20 in PBS). […] Duplicate wells were prepared for each concentration of test sample. […] Bound radiolabel was quantified by addition of 100 μl/well Microscint 20 (Perkin Elmer) followed by counting using a Packard TopCount microplate liquid scintillation counter. Data were plotted and analysed using Graphpad Prism software to calculate IC₅₀ values for each experiment, and to derive the corresponding Ki according to the Cheng-Prusoff equation; Ki=IC₅₀/(1+D/Kd) Where: [0257]

In assay [2] the target is T2, rat nerve growth factor (beta-NGF) (rat, UniProt P25427 122-241). As to the kind of experiment: inhibition of rat 125I-NGF binding to coated TrkA fusion protein. The procedure:
as §1

For assay [3], the target named is T1, human nerve growth factor (beta-NGF). The assay is described as follows: inhibition of human 125I-NGF binding to coated TrkA fusion protein. How it is done:
as §1

The target of assay [4] is T2, rat nerve growth factor (beta-NGF). The assay is described as follows: inhibition of rat 125I-NGF binding to coated p75 fusion protein. The procedure:
as §1

Assay [5] deals with mouse nerve growth factor (mouse, UniProt P01139 122-241). As to the kind of experiment: cell-based or functional assay.
The target of assay [6] is T1, human nerve growth factor (beta-NGF). As to the kind of experiment: cell-based or functional assay.
Assay [7] deals with T2, rat nerve growth factor (beta-NGF). The assay is described as follows: cell-based or functional assay.
The target in assay [8] is T1, human nerve growth factor (beta-NGF). The assay is described as follows: cell-based or functional assay. The source holds these as a separate data set.
Assay [9] addresses T2, rat nerve growth factor (beta-NGF). As to the kind of experiment: cell-based or functional assay. The source holds these as a separate data set.
Assay [10] deals with T1, human nerve growth factor (beta-NGF). The assay is described as follows: cell-based or functional assay. The source holds these as a separate data set.
Assay [11] deals with T2, rat nerve growth factor (beta-NGF). The assay is described as follows: cell-based or functional assay. This is another data set of the same source.

Read-outs that look alike come from different tables or passages of the source.

mouse nerve growth factor, sequence (P01139 122-241): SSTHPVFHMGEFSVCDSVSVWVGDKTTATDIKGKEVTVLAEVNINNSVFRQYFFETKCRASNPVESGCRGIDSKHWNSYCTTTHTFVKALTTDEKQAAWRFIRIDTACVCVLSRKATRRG
T2 sequence (P25427 122-241): as the sequence (P01139 122-241) above, with A40G, R50K, S61P, E94D, T117A counted along it
T1 sequence (P01138 122-241): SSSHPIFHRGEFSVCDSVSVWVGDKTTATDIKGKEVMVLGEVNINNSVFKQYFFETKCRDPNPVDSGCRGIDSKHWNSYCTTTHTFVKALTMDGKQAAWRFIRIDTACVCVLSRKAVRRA

Regarding “mouse anti-mouse NGF MAB5260Z (Chemicon) (antibody)”, the IC50 worked out at 0.57 nM in assay [1], 0.31 nM in assay [2], 0.368 nM in [3] and 0.587 nM in assay [4]. For the same molecule, the Ki in assay [1] is 0.472 nM; in assay [2] it was 0.288 nM; in assay [3], 0.333 nM; in [4], 0.532 nM.

As for “mouse anti-human NGF MAB256 (R&D Systems) (antibody)”, the IC50 in assay [1] is 0.304 nM; in [2] it was 1.48 nM; in [3] it was 1.94 nM; in [4] it was 2.94 nM. In addition, the Ki was 0.252 nM in assay [1], 1.38 nM in assay [2], 1.76 nM in assay [3] and 2.67 nM in [4]. Moreover, the IC50, FLIPR calcium mobilisation stood at 1.4 nM in [5], 0.76 nM in assay [6] and 0.79 nM in [7]. Moreover, the IC50, TF-1 cell proliferation in assay [5] was 7 nM; in assay [6], 6 nM; in [7], 5 nM. The results for the IC50, PC12 cell survival in [6] and in assay [7] were 23 nM and 44 nM, respectively. Moreover, the IC50, calcium mobilisation assay in assay [6] was 0.76 nM; in [7], 0.79 nM.

B1: 1033B2 human IgG4 (antibody, V domains shown)
VH: QVQLQQSGAEVKKPGSSVKLSCKASGGTFSSFGISWVRQAPGQGLEWLGRIIPFLGPADYAQKFQGRVTITADESRSTAYMELSSLTSEDTAVYFCARSFYDILTGYYEGVFYYYMDVWGQGTMVTVSS
VL: QSVLIQPASVSGSPGQSITISCTGTSSDVGGYNYVSWYQQHPGKAPKLMIYEGSKRPSGVSNRFSGSKSGNTASLTISGLQAEDEADYYCSSYTTRSTRVFGGGTKLTVL
On to B1, for which the “IC50, calcium mobilisation assay” value in [8] worked out at 85 nM.

B2: 1033G9 human IgG4 (antibody, V domains shown)
VH: EVQLVQSGAEVRKPGSSVKVSCKASGDTSTLYSINWVRQVPGQGLEWMGAIIPIFGLTDYAQEFQGRLTITADESTNTAYMELTGLRSEDTAIYYCARNLFTTLSYWYFDLWGQGTLVTVSS
VL: SSELTQDPAVSVALGQTVRITCQGDRLRSYYASWYQQKPGQAPVLVIYGKNNRPSGIPDRFSGSSSGNTASLTITGAQAEDEADYYCNSRDSSGNHVVFGGGTLLTVL
Consider B2, for which the entries for the “IC50, calcium mobilisation assay” value in [8] and in [9] were 55 nM and 26 nM, respectively.

B3: 1021E5 human IgG4 (antibody, V domains shown)
VH: EVQLVQSGAEVKKPGSSVKVSCKASGGTFSTYGISWVRQAPGQGLEWIGGIIPIFDTGNSAQSFQGRVTITADESTSTAYMEVSSLRSDDTAVYYCASSSRIYDYAGGDHYYYDMDVWGQGTMVTVSS
VL: QAVLTQPSSVSTPPGQKVTISCSGSSSNIGNNYVSWYQQLPGTAPKLLIYDNNKRPSGIPDRFSGSKSGTSATLGITGLQTGDEADYYCGTWDSSLSAWVFGGGTKLTVL
Regarding B3, the “IC50, FLIPR calcium mobilisation” value in assay [10] was determined as 76 nM; in assay [11] it was 75 nM; in [5] it was 47 nM. The “IC50, PC12 cell survival” value in assay [10] is about 1300 nM. The “IC50, calcium mobilisation assay” value in assay [8] is 76 nM; in [9] it was 75 nM.

B4: 1064F8 human IgG4 (antibody, V domains shown)
VH: EVQLVQSGAEVKKPGSSVKVSCKASGGTFSSYAYTWVRQAPGQGLEWMGGIVPIFGSTNYAQKFQGRLTITADEFTSTAHMELSSLTSADTAVYYCAGGSDLYCSGGNCYGGGHYYYYMDVWGQGTTVTVSS
VL: SSELTQDPAVSVALGQTVRITCTGTSSDVGGYNYVSWYQQHPGKAPKLMIYEGSKRPSGVSNRFSGSKSGNTASLTISGLQAEDEADYYCSSYTTRSTRVFGGGTKLTVL
B4: the “IC50, calcium mobilisation assay” value in [8] was found to be 2.5 nM; in [9], 5.5 nM.

B5: 1024C4 human IgG4 (antibody, V domains shown)
VH: QVQLQESGGGVVQPGRSLRLSCAASGFAFKKYGLHWVRQAPGKGLEWVGVTSYDGSKNYYADSVKGRFTISRDNSKNTLYLQVNSLRPEDTAVYYCAKDGEVGDLHLVPFRQDSGLDVWGRGTLVTVSS
VL: QSVLTQPPSVSVSPGQTASITCSGDNLGDKYVHWYQQKPGQSPVLVTYQDTKRPSGIPERFSGSNSGNTATLTISGTQAMDEAGYYCQAWDSSTVVFGGGTKLTVL
Take B5: the “IC50, calcium mobilisation assay” value in [8] was about 410 nM; in assay [9] it was about 565 nM.

B6: 1028F8 human IgG4 (antibody, V domains shown)
VH: EVQLLESGGGLVQPGGSLRLSCAASGFTFSSYAMSWVRQAPGKGLEWVSAIIGSGGSTYYADSVKGRFTISRDNSKNTLYLQMNSLRAEDTAVYYCARAGGSGWFENWFDPWGRGTLVTVSS
VL: QSVLTQPPSVSVSPGQTATITCSGDNLEDKYVSWYQQKAGQSPVLVIFQDSKRPSEIPERFSGSNSGNTATLTISGTLSGDEADYYCQVWDAGIDPWAFGGGTKLTVL
Turning to B6, the “IC50, calcium mobilisation assay” value in [8] came out at 73 nM.

B7: 1057F11 human IgG4 (antibody, V domains shown)
VH: EVQLVETGGGVVQPGTSLRLSCAASGFTFSSHGMHWVRQAPGQGLEWVAHAWSDGSNKYYADSLKGRFTISRDNSRNTLYLQMNSLRAEDTAVYYCARDGQQLANYAMDVWGRGTTVTVSS
VL: DIQMTQSPSFLSASVGDRVTITCRASQGINSYLAWYQQIPGKAPNLLIYAASTLQSGVPSRFSGSGSGTEFTLTISSLQPEDFATYYCQQLNTYPFTFGPGTKVEIK
On to B7, for which the “IC50, calcium mobilisation assay” value in [8] was about 3700 nM.

B8: 1022E3 human IgG4 (antibody, V domains shown)
VH: QVQLVQSGAEVKKPGASVKVSCKASGYSFINYSMHWVRQAPGQGLEWIGIINPGGDSTKYTQRFQDRVTMTWDTSTSTVYMDLSSLRSEDTAIYYCARGLHPIPMMLATINPIFAYWGQGTLVTVSS
VL: SSELTQDPAVSVALGQTVRITCRGDSLRNYYANWYQQKPGQAPVLVIYDENKRPSGIPDRFSGSGSGNTASLTITGAQAEDEADYFCNSRDTFGYVRDVLFGGGTKVTVL
Consider B8, for which the results for the “IC50, calcium mobilisation assay” value in [8] and in [9] were 18 nM and 14 nM, respectively.

B9: 1016A8 human IgG4 (antibody, V domains shown)
VH: EVQLVQSGAELKKPGASVKVSCKASGYPFTSYYMHWVRQAPGQGLEWMGLVDPEDGETIYAEKFQGRVTITADTSTDTAYMELSSLRSEDTAVYSCATSSHNYGTASYYHYGMDVWGRGTMVTVSS
VL: QSVLTQPPSASGTPGQRVTISCSGSSSNIGSNTVNWYQRLPGAAPQLLIYNNDQRPSGIPDRFSGSKSGTSGSLVISGLQSEDEADYYCASWDDSLNGRVFGGGTKLTVL
For the molecule B9, the entries for the “IC50, calcium mobilisation assay” value in [8] and in [9] were 65 nM and 14 nM, respectively.

B10: 1083H4 human IgG4 (antibody, V domains shown)
VH: QMQLVQSGAEVKKTGSSVKVSCKASGYTFAYHYLHWVRQAPGQGLEWMGGIIPIFGTTNYAQRFQDRVTITADESTSTAYMELSSLRSEDTAVYYCASADYVWGSYRPDWYFDLWGRGTMVTVSS
VL: B9 VL
With B10, the “IC50, FLIPR calcium mobilisation” value was 30 nM in [10], 61 nM in [11] and 54 nM in [5]. Also, the “IC50, PC12 cell survival” value in [10] was about 1100 nM. The entries for the “IC50, calcium mobilisation assay” value in [8] and in assay [9] were 30 nM and 61 nM, respectively.

(Values after US20080107658A1 (AstraZeneca / MedImmune, published 2008).)
